Reference: US20210347908A1 (ELPISCIENCE SUZHOU BIOPHARMA, published 2021)
Substitutions are numbered along the chain they refer to. Where two headings read alike, the source gives them in different places. Values belong to the binder of their own block, whether it stands above or below them.

Experiments:
[1] = target: T1, Fc tagged human SIRPα v1 ECD recombinant protein (human, UniProt P78324 31-370); test: ELISA
T1 construct: range 1-370; cloned range M1-R370 includes the signal peptide; also called hSIRPα V1; not shown: human IgG Fc region (hFc) of the pCPC vector
Protocol: (§1) Binding specificity of the purified hybridoma antibodies against SIRP family members was detected by ELISA assay using recombinant proteins of Fc tagged human SIRPα v1 ECD, human SIRPα v2 ECD, human SIRPβ ECD and human SIRPγ ECD. Briefly the antibodies were incubated with ELISA microplate coated antigens at 37° C. for 1 hour. After washing, horseradish peroxidase (HRP) labeled anti-mouse or anti-human IgG 2nd Ab (Sigma) was added and incubated at 37° C. for 1 hour. Then, 100 μl/well of TMB solution (Biotechnology) was added. After incubation for 15 minutes at room temperature, the reaction was stopped by the addition of 50 μl of 1N HCl. OD 450 nm was read and EC₅₀ was calculated. Other than 060 and HEFLB, all of the antibodies as tested can bind with both human SIRPα v1 and SIRPα v2. 060 and HEFLB can bind with human SIRPα v1 but not v2. Other than 055, all of the antibodies as tested can bind with human SIRPβ. In comparison with other known anti-SIRPα antibodies, only 022, 035 and 050 can bind with human SIRPγ weakly.
(§2) The purified chimeric antibodies were applied for binding specificity analysis and species cross reactivity analysis (refer to methods described in Example 3.3 and 3.4). FIGS. 1A to 1D show binding specificity of anti-SIRPα chimeric antibodies against recombinant proteins of human SIRPα v1 ECD (A), human SIRPα v2 ECD (B), human SIRPβ ECD (C) and human SIRPγ ECD (D) as measured by ELISA analysis.

[2] = target: T1, Fc tagged human SIRPα v1 ECD …; test: ELISA; remark: listed apart in the source
Protocol: as §1, §2

[3] = target: T2, full length human SIRPα v1 stably expressed on CHOK1 cells (human, UniProt P78324 31-504); test: FACS on CHOK1 cells
T2 construct: whole, on cells; also called CHOK1-human SIRPα v1-1B4 cells; CHOK1-human SIRPα v1
Protocol: (§3) Species cross reactivity of the purified hybridoma antibodies against human, cyno and mouse SIRPα was determined by FACS assay using CHOK1-human SIRPα v1-1B4 cells, CHOK1-cyno SIRPα-2A2 cells, and CHOK1-C57BL/6 mouse SIRPα-2.22 cells, which stably expressing SIRPα protein. Briefly the antibodies were incubated with 2×10⁵ target cells at 4° C. for 1 hour. After washing, fluorescence labeled anti-mouse or anti-human IgG 2nd antibody (Life Technologies) was added and incubated at 4° C. for 1 hour. Geometric median fluorescence intensity was detected and EC₅₀ was calculated. In particular, it is noted, in contrast to the other antibodies tested in the same experiment, 060 cannot bind with cyno SIRPα and 035 has cross reactivity against C57BL/6 mouse SIRPα.
as §2

[4] = target: T3, full length C57BL/6 mouse SIRPα stably expressed on CHOK1 cells (mouse (C57BL/6), UniProt P97797 32-513); test: FACS on CHOK1 cells
T3 construct: whole, on cells; also called CHOK1-C57BL/6 mouse SIRPα-2.22 cells
T3 sequence (looked up): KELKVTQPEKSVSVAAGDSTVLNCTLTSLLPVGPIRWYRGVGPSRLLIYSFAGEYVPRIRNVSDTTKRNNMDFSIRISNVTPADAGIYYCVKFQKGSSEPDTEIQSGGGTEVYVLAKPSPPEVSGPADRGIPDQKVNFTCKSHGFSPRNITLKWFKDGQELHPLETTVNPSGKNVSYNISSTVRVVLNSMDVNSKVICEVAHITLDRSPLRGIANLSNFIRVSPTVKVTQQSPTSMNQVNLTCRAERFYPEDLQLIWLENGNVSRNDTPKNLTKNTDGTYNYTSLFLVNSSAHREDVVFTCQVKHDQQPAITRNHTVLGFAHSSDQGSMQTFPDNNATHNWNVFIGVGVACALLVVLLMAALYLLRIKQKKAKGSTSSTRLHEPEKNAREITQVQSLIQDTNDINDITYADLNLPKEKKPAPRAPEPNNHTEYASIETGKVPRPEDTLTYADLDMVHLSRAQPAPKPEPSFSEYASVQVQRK
Protocol: as §3, §2

[5] = target: T4, full length cyno SIRPα stably expressed on CHOK1 cells (cynomolgus monkey, UniProt A0A2K5VYQ9 31-507); test: FACS on CHOK1 cells
T4 construct: whole, on cells; also called CHOK1-cyno SIRPα-2A2 cells; CHOK1-cyno SIRPα
T4 sequence: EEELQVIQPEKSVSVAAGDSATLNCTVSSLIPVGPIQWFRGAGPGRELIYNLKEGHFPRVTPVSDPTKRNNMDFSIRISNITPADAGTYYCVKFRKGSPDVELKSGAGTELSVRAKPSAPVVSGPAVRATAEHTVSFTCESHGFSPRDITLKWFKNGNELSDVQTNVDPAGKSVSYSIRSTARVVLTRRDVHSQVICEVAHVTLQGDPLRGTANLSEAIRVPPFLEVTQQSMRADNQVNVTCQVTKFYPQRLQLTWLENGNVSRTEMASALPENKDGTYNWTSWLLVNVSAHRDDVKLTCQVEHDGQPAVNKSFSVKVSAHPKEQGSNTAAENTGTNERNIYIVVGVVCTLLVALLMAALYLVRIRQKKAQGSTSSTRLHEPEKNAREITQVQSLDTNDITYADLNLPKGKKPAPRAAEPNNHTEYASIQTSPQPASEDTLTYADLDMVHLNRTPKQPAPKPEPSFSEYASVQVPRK
Protocol: as §3, §2

[6] = target: T2, full length human SIRPα v1 stably …; test: FACS on CHOK1 cells; remark: listed apart in the source
Protocol: as §3, with “SIRPα. […]” for “SIRPα.”

[7] = target: T2, full length human SIRPα v1 stably …; test: FACS on CHOK1 cells; remark: listed apart in the source

T1 sequence (P78324 31-370 limits assumed): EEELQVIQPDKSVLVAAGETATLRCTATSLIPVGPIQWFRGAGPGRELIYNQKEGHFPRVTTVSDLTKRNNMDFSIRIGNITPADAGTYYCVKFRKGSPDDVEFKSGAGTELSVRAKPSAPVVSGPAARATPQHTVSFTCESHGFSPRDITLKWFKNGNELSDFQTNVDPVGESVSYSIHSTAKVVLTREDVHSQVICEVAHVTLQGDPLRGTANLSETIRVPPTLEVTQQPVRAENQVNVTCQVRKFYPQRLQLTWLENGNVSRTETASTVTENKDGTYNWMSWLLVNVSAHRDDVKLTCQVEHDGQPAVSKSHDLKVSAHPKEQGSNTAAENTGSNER
T2 sequence (P78324 31-504): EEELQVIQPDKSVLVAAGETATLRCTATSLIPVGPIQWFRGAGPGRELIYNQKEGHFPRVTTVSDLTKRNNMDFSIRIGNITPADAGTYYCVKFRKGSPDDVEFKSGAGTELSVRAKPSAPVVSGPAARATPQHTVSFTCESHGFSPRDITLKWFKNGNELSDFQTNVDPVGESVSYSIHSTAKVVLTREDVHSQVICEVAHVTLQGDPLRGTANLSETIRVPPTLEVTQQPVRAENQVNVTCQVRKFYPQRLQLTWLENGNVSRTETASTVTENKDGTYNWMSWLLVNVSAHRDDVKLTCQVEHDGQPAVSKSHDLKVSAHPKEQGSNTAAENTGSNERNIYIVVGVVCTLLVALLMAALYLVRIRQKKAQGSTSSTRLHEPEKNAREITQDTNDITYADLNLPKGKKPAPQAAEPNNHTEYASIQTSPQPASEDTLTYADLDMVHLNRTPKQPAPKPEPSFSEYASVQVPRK

EC50 [1]: 0.11 nM | EC50 [2]: 0.11 nM | EC50 [3]: 2.4 nM | binding result [4]: no binding (tested: 10 nM) | MFI at 10 nM [5]: 20500 MFI | EC50 [6]: 2.4 nM
B1: chimeric antibody 050c (antibody, V domains shown)
VH: QIQLVQSGPELKKPGETVKISCKASGYTFTHYSMHWVKQAPGKGLKWMGWINTETAEPTYVDDFKGRFAFSLEASASTAFFQINNLKNEDTATYFCARGGLRQGDYWGQGTTLTVSS
VL: QIVLTQSPPIMSASPGEKVTLTCSATSSVSASYLYWFQQKPGSSPKLWIYSTSNLASGVPARFSGSGSGTSYSLTISNMEPADAASYFCHQWSSYPYTFGGGTKLEIK

EC50 [7]: 1.5 nM | EC50 [1]: 0.08 nM | EC50 [2]: 0.08 nM | EC50 [3]: 1.3 nM | MFI at 10 nM [4]: 13400 MFI | MFI at 10 nM [5]: 24600 MFI | EC50 [6]: 1.3 nM
B2: chimeric antibody 035c (antibody, V domains shown)
VH: QIQLVQSGPELRKPGETVKISCKASGYSFTNYAMNWVKQAPGKVLKWMGFINTYTGEPTYADDFKGRFAFSLETSASTAYLQINNLKNEDTATYFCTRTRGYYDFDGGAFDYWGQGTSLTVSS
VL: DIVMTQSQKFMSTSIGDRVSVTCKASQNVGTHLAWYQQKPGQSPKALIFSASYRYIGVPDRFTGSGSGTDFTLTITNVQSEDLAEYFCQQYNTYPLTFGAGTKLELK

EC50 [1]: 0.11 nM | EC50 [2]: 0.11 nM | EC50 [3]: 3.4 nM | binding result [4]: no binding (tested: 10 nM) | MFI at 10 nM [5]: 8060 MFI | EC50 [6]: 3.4 nM
B3: chimeric antibody 055c (antibody, V domains shown)
VH: EVKLVESEGGLVQPGDSMKLSCTASGFTFSDYFMTWIRQVPEKGLEWIANVNYDGRSTYYLDSLKSRFIISRDNANNILYLQMSSLKSEDTATYYCAREGSQTPLYAVDYWGQGTSVTVSS
VL: DIVMTQSQKFMSTTVGDRVNITCKASQNVGTAVAWYQQKPGQSPKLLIYLASNRYTGVPDRFTGSGSGTDFTLTVSDMRSEDLADYFCQQYSIYPFTFGSGTKLEIK

EC50 [1]: 0.06 nM | EC50 [2]: 0.06 nM | EC50 [3]: 2.4 nM | binding result [4]: no binding (tested: 10 nM) | MFI at 10 nM [5]: 17100 MFI | EC50 [6]: 2.4 nM
B4: chimeric antibody 002c (antibody, V domains shown)
VH: EVKLEESGGGLVQPGGSMILSCVASGFTFRNYWMNWVRQSPERGLEWIAEITLKSNTYATHYAESVKGRFAISRDDSKSSFYLQMNDLRPEDTGIYYCTTFTKVVADWHLDVWGAGTTVTVSS
VL: DVLMTQTPLSLPVSLGDQASISCRSSQNIVHSNGNTYLEWYLQKPGQSPKLLIYKISNRFSGVPDRFSGSGSGTDFTLRISRVEAEDLGVYYCFQGSHVPFTFGSGTKLEIQ

EC50 [1]: 0.12 nM | EC50 [2]: 0.12 nM | EC50 [3]: 3 nM | binding result [4]: no binding (tested: 10 nM) | MFI at 10 nM [5]: 19000 MFI | EC50 [6]: 3 nM
B5: chimeric antibody 032c (antibody, V domains shown)
VH: B4 VH with K3R, I19K, A24V
VL: B4 VL with S14N, I56V, Q112K

EC50 [1]: 0.08 nM | EC50 [2]: 0.08 nM | EC50 [3]: 2.8 nM | binding result [4]: no binding (tested: 10 nM) | binding result [5]: no binding (tested: 10 nM) | EC50 [6]: 2.8 nM
B6: chimeric antibody 060c (antibody, V domains shown)
VH: QVQLKESGPGLVAPSESLSITCTVSGFSLTNYDISWIRQSPGKGLEWLGVIWTGGDTNFNSAFMSRLSISKDKSKSQVFLKLNSLQTDDTAIYYCVRVQYFGGSYGPMDYWGQGISVTVSS
VL: DIQMTQASSYLSVSLGGRVTITCEASDHINDWLAWYQQTPGNAPRLLISGATSLETGVPSRFSGSGSGKDYTLSITSLQTEDIATYYCQQYWNTPLTFGAGTRLELK

EC50 [1]: 0.11 nM | EC50 [2]: 0.11 nM | EC50 [3]: 1.7 nM | binding result [4]: no binding (tested: 10 nM) | MFI at 10 nM [5]: 23500 MFI | EC50 [6]: 1.7 nM
B7: chimeric antibody 022c (antibody, V domains shown)
VH: QIQLVQSGPELKKPGETVKISCKASGYTFTDYAMHWVKQAPGKGLKWMGWKNTETGESTYAEDFKGRFAFFLETSASTAYLQINNVKNEDTATYFCARGGYGSNYVMDYWGQGTSVIVSS
VL: DIQMTQSSSSFSVSLGDRVTITCKASEDIYNRLAWYQQKPGNAPRLLISGATSLETGVPSRFSGSGSGKDYTLSITSLQTEDVATYYCQQYWNSPRTFGGGTKLEIK

EC50 [7]: 13.6 nM | EC50 [1]: 0.11 nM | EC50 [2]: 0.11 nM | EC50 [3]: 13.6 nM | binding result [4]: no binding (tested: 10 nM) | MFI at 10 nM [5]: 27600 MFI | EC50 [6]: 13.6 nM
B8: reference antibody 29-AM4-5 (antibody, V domains shown)
VH: EVQLVESGGGLVQPGGSLRLSCAASGFNISYYFIHWVRQAPGKGLEWVASVYSSFGYTYYADSVKGRFTISADTSKNTAYLQMNSLRAEDTAVYYCARFTFPGLFDGFFGAYLGSLDYWGQGTLVTVSS
VL: DIQMTQSPSSLSASVGDRVTITCRASQSVSSAVAWYQQKPGKAPKLLIYSASSLYSGVPSRFSGSRSGTDFTLTISSLQPEDFATYYCQQAVNWVGALVTFGQGTKVEIK

EC50 [1]: 0.14 nM | EC50 [2]: 0.14 nM | EC50 [3]: 5.5 nM | binding result [4]: no binding (tested: 10 nM) | MFI at 10 nM [5]: 12200 MFI | EC50 [6]: 5.5 nM
B9: chimeric antibody 074c (antibody, V domains shown)
VH: QVQLQQPRAELVKPGASVMLSCKASGYTFSSYWIHWVRQGPGQGLEWIGLIHPNSGNTDCSETFKNKATLTVDTSSSTAYMQLSSLASEDSAVYYCARDGASYDWFVHWGQGTLVTVSA
VL: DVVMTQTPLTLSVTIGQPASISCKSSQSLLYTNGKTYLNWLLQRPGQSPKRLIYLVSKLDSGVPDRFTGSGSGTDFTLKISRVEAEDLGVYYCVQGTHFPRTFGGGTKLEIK
